From publication PMC11960969, “Mdga2 deficiency leads to an aberrant activation of BDNF/TrkB signaling that underlies autism-relevant synaptic and behavioral changes in mice” (PLOS Biology, 2025)

B1: sp¦P60755¦MDGA2_MOUSE (protein, UniProt P60755 26-924, looked up)
MAM domain-containing …: PPTVRIVHSGLACNIEEERYSERVYTIREGETLELTCLVTGHPRPQIRWTKTAGSASDRFQDSSVFNETLRITNIQRHQGGRYYCKAENGLGSPAIKSIRVDVYYLDDPVVTVHQSIGEAKEQFYYERTVFLRCVANSNPPVRYSWRRGQEVLLQGSDKGVEIYEPFFTQGETKILKLKNLRPQDYANYSCIASVRNVCNIPDKMVSFRLSNKTASPSIKLLVDDPIVVNPGEAITLVCVTTGGEPTPSLTWVRSFGTLPEKIVLNGGTLTIPAITSDDAGTYSCIANNNVGNPAKKSTNIIVRALKKGRFWITPDPYHKDDNIQIGREVKISCQVEAVPSEELTFSWFKNGRPLRSSERMVITQTDPDVSPGTTNLDIIDLKFTDFGTYTCVASLKGGGISDISIDVNISSSTVPPNLTVPQEKSPLVTREGDTIELQCQVTGKPKPIILWSRADKEVAMPDGTMQMESYDGTLRIVNVSREMSGMYRCQTSQYNGFNVKPREALVQLIVQYPPAVEPAFLEIRQGQDRSVTMSCRVLRAYPIRVLTYEWRLGNKLLRTGQFDSQEYTEYPLKSLSNENYGVYNCSIINEAGAGRCSFLVTGKAYAPEFYYDTYNPVWQNRHRVYSYSLQWTQMNPDAVDRIVAYRLGIRQAGQQRWWEQEIKINGNIQKGELITYNLTELIKPEAYEVRLTPLTKFGEGDSTIRVIKYTGEFHCGFEDGNICLFTQDDTDNFDWTKQSTATRNTKYTPNTGPSADRSGSKEGFYMYIETSRPRLEGEKARLLSPVFSIAPKNPYGPTNSAYCFSFFYHMYGQHIGVLNVYLRLKGQTTIENPLWSSSGNKGQRWNEAHVNIYPITSFQLIFEGIRGPGIEGDIAIDDVSIAEGECAKQDLPTKNSVD
B2: sp¦Q8K4I3¦ARHG6_MOUSE (protein, UniProt Q8K4I3 1-771, looked up)
Rho guanine nucleotide …: MNPEERLVTWLISLGVLESPKKTVCDPEEFLKSSLKNGVVLCKLINRLLPGSVEKYCLEPQTEADCIDNINDFLKGCATLQVEVFEPDDLYSGANFSKVLNTLLAVNKATEDQLSERPCGRSSSLSAATSSQTNPQVAVPSTAPEQHSEEKAEMTENGSHQLIVKARFNFKQTNEDELSVCKGDIIYVTRVEEGGWWEGTLNGRTGWFPSNYVREIKPSERPLSPKAIKGFDTAPLTKNYYTVVLQNILDTEKEYAKELQSLLVTYLRPLQSNNNLSTVEFTCLLGNFEEVCTFQQTLCQALEECSKFPENQHKVGGCLLNLMPHFKSMYLAYCANHPSAVNVLTQHSDDLERFMENQGASSPGILILTTSLSKPFMRLEKYVTLLQELERHMEDTHPDHQDILKAIIAFKTLMGQCQDLRKRKQLELQILSEPIQAWEGDDIKTLGNVIFMSQVVMQHGACEEKEERYFLLFSSVLIMLSASPRMSGFMYQGKIPIAGMVVNRLDEIEGSDCMFEITGSTVERIVVHCNNNQDFQEWMEQLNRLTKGPTSCGSLSKTSSSSCSTHSSFSSTGQPRGPLEPPQIIKPWSLSCLRPAPPLRPSAALGYKERMSYILKESSKSPKTMKKFLHKRKTERKASEEEYVIRKSTAALEEDAQILKVIEAYCTSASFQQGTRKDSVPQVLLPEEEKLIIEETRSNGQTIIEEKSLVDTVYALKDEVKELKQENKKMKQCLEEELKSRKDLEKLVRKLLKQTDECIRSESSSKTSILQ
B3: sp¦Q9ERI2¦RB27A_MOUSE (protein, UniProt Q9ERI2 2-221, looked up)
Ras-related protein Rab-27A: SDGDYDYLIKFLALGDSGVGKTSVLYQYTDGKFNSKFITTVGIDFREKRVVYRANGPDGAVGRGQRIHLQLWDTAGQERFRSLTTAFFRDAMGFLLLFDLTNEQSFLNVRNWISQLQMHAYCENPDIVLCGNKSDLEDQRAVKEEEARELAEKYGIPYFETSAANGTNISHAIEMLLDLIMKRMERCVDKSWIPEGVVRSNGHTSADQLSEEKEKGLCGC
B4: sp¦P05532¦KIT_MOUSE (protein, UniProt P05532 25-979, looked up)
Mast/stem cell growth factor …: SQPSASPGEPSPPSIHPAQSELIVEAGDTLSLTCIDPDFVRWTFKTYFNEMVENKKNEWIQEKAEATRTGTYTCSNSNGLTSSIYVFVRDPAKLFLVGLPLFGKEDSDALVRCPLTDPQVSNYSLIECDGKSLPTDLTFVPNPKAGITIKNVKRAYHRLCVRCAAQRDGTWLHSDKFTLKVRAAIKAIPVVSVPETSHLLKKGDTFTVVCTIKDVSTSVNSMWLKMNPQPQHIAQVKHNSWHRGDFNYERQETLTISSARVDDSGVFMCYANNTFGSANVTTTLKVVEKGFINISPVKNTTVFVTDGENVDLVVEYEAYPKPEHQQWIYMNRTSANKGKDYVKSDNKSNIRYVNQLRLTRLKGTEGGTYTFLVSNSDASASVTFNVYVNTKPEILTYDRLINGMLQCVAEGFPEPTIDWYFCTGAEQRCTTPVSPVDVQVQNVSVSPFGKLVVQSSIDSSVFRHNGTVECKASNDVGKSSAFFNFAFKGNNKEQIQAHTLFTPLLIGFVVAAGAMGIIVMVLTYKYLQKPMYEVQWKVVEEINGNNYVYIDPTQLPYDHKWEFPRNRLSFGKTLGAGAFGKVVEATAYGLIKSDAAMTVAVKMLKPSAHLTEREALMSELKVLSYLGNHMNIVNLLGACTVGGPTLVITEYCCYGDLLNFLRRKRDSFIFSKQEEQAEAALYKNLLHSTEPSCDSSNEYMDMKPGVSYVVPTKTDKRRSARIDSYIERDVTPAIMEDDELALDLDDLLSFSYQVAKGMAFLASKNCIHRDLAARNILLTHGRITKICDFGLARDIRNDSNYVVKGNARLPVKWMAPESIFSCVYTFESDVWSYGIFLWELFSLGSSPYPGMPVDSKFYKMIKEGFRMVSPEHAPAEMYDVMKTCWDADPLKRPTFKQVVQLIEKQISDSTKHIYSNLANCNPNPENPVVVDHSVRVNSVGSSASSTQPLLVHEDA
B5: sp¦P06802¦ENPP1_MOUSE (protein, UniProt P06802 1-906, looked up)
Ectonucleotide …: MERDGDQAGHGPRHGSAGNGRELESPAAASLLAPMDLGEEPLEKAERARPAKDPNTYKVLSLVLSVCVLTTILGCIFGLKPSCAKEVKSCKGRCFERTFSNCRCDAACVSLGNCCLDFQETCVEPTHIWTCNKFRCGEKRLSRFVCSCADDCKTHNDCCINYSSVCQDKKSWVEETCESIDTPECPAEFESPPTLLFSLDGFRAEYLHTWGGLLPVISKLKNCGTYTKNMRPMYPTKTFPNHYSIVTGLYPESHGIIDNKMYDPKMNASFSLKSKEKFNPLWYKGQPIWVTANHQEVKSGTYFWPGSDVEIDGILPDIYKVYNGSVPFEERILAVLEWLQLPSHERPHFYTLYLEEPDSSGHSHGPVSSEVIKALQKVDRLVGMLMDGLKDLGLDKCLNLILISDHGMEQGSCKKYVYLNKYLGDVNNVKVVYGPAARLRPTDVPETYYSFNYEALAKNLSCREPNQHFRPYLKPFLPKRLHFAKSDRIEPLTFYLDPQWQLALNPSERKYCGSGFHGSDNLFSNMQALFIGYGPAFKHGAEVDSFENIEVYNLMCDLLGLIPAPNNGSHGSLNHLLKKPIYNPSHPKEEGFLSQCPIKSTSNDLGCTCDPWIVPIKDFEKQLNLTTEDVDDIYHMTVPYGRPRILLKQHHVCLLQQQQFLTGYSLDLLMPLWASYTFLRNDQFSRDDFSNCLYQDLRIPLSPVHKCSYYKSNSKLSYGFLTPPRLNRVSNHIYSEALLTSNIVPMYQSFQVIWHYLHDTLLQRYAHERNGINVVSGPVFDFDYDGRYDSLEILKQNSRVIRSQEILIPTHFFIVLTSCKQLSETPLECSALESSAYILPHRPDNIESCTHGKRESSWVEELLTLHRARVTDVELITGLSFYQDRQESVSELLRLKTHLPIFSQED
B6: sp¦Q3TBL6¦TP8L3_MOUSE (protein, UniProt Q3TBL6 1-204, looked up)
Tumor necrosis factor …: MDSDSGEQSEGEPGTAAGPHVFSSKNLALQAQKKILSKIASKTVANMLIDDTSSEIFDELYKVTEIHTHNKKEAHKIMKDAIKVAIKIGILYRNKQFSQEEVIIVEKLRKKLNQTAMTMVSFYEVEYTFDTNVLSKLLHECKDLVHELVQRHLTPRTHGRINHVFNHFADVEFLSTLYGPHGNCRPNLKRICEGINKLLDDKIL
B7: sp¦Q3UH99¦SHSA6_MOUSE (protein, UniProt Q3UH99 31-525, looked up)
Protein shisa-6: ARGRSGNRTLNAGAVGGRRAGGALARGGRELNSTARASGVPEAGSRRGQSAAAAAAAAAAASATVTYETCWGYYDVSGQYDKEFECNNSESGYLYCCGTCYYRFCCKKRHEKLDQRQCTNYQSPVWVQTPSTKVVSPGPENKYDPEKDKTNFTVYITCGVIAFVIVAGVFAKVSYDKAHRPPREMNIHRALADILRQQGPIPIAHCERETISAIDTSPKENTPVRSTSKNHYTPVRTAKQTPGDRQYNHPILSSATQTPTHEKPRMNNILTSATEPYDLSFSRSYQNLAHLPPSYESAVKTNPSKYSSLKRLTDKEADEYYMRRRHLPDLAARGTLPLNVIQMSQQKPLPRERPRRPIRAMSQDRVLSPRRGLPDEFGMPYDRILSDEQLLSTERLHSQDPLLSPERTAFPEQSLSRAISHTDVFVSTPVLDRYRMTKMHSHPSASNNSYATLGQSQTAAKRHAFASRRHNTVEQLHYIPGHHTCYTASKTEVTV
B8: sp¦Q922B6¦TRAF7_MOUSE (protein, UniProt Q922B6 1-594, looked up)
E3 ubiquitin-protein ligase …: MPPINTPRRSDSAISVRSLHSESSMSLRSTFSLPEEEEEPEPLVFAEQPSVKLCCQLCCSVFKDPVITTCGHTFCRRCALKSEKCPVDNAKLTVVVNNIAVAEQIGELFIHCRHGCHAAGTGKPGVFEVDPRGCPFTIKLSARKDHESSCDYRPVRCPNNPSCPPLLKMNLEAHLKECEHIKCPHSKYGCTFIGNQDTYETHLETCRFEGLKEFLQQTDDRFHEMHVALAQKDQEIAFLRSMLGKLSEKIDQLEKSLELKFDVLDENQSKLSEDLMEFRRDASMLNDELSHINARLNMGILGSYDPQQIFKCKGTFVGHQGPVWCLCVYSMGDLLFSGSSDKTIKVWDTCTTYKCQKTLEGHDGIVLALCIQGCKLYSGSADCTIIVWDIQNLQKVNTIRAHDNPVCTLVSSHNMLFSGSLKAIKVWDIVGTELKLKKELTGLNHWVRALVAAQSYLYSGSYQTIKIWDIRTLDCIHVLQTSGGSVYSIAVTNHHIVCGTYENLIHVWDIESKEQVRTLTGHVGTVYALAVISTPDQTKVFSASYDRSLRVWSMDNMICTQTLLRHQGSVTALAVSRGRLFSGAVDSTVKVWTC

Tested on: hippocampal proteins
Assay: DIA quantification proteomics, hippocampus of Mdga2+/- vs WT mice
Design: species or system mouse
Conditions: Mdga2+/- vs WT mouse hippocampus (HET-HIP-VS-WT-HIP); S3 Table, downregulated DEPs; SE, pvalue and adj_pvalue in own columns c3-c5
Method in brief: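 Hippocampi from 1.5–2-month-old male Mdga2+/− mice and WT littermates; 100 μg protein trypsin-digested, peptides high-pH fractionated. DDA-built spectral library, DIA by nano-LC–MS/MS with Spectronaut and mProphet QC. DEPs called at fold change >1.1 and p <0.05.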

Molecule | log2FC
B1 | -3.064
B2 | -1.975
B3 | -2.259
B4 | -2.731
B5 | -2.366
B6 | -2.713
B7 | -2.769
B8 | -2.686

Same assay, conditions: regulation class of the protein, HET-HIP-VS-WT-HIP; S3 Table, downregulated DEPs

Molecule | Class
B1 | Down
B2 | Down
B3 | Down
B4 | Down
B5 | Down
B6 | Down
B7 | Down
B8 | Down
